Nine molecules from US20250066503A1, “CELL INJURY INDUCING THERAPEUTIC DRUG FOR USE IN CANCER THERAPY” (CHUGAI SEIYAKU KABUSHIKI KAISHA, priority 2016, published 2025) can be followed below.

The experiment has as its target T1, soluble human CD3 epsilon chain (human, UniProt P07766 23-126).
T1 construct: also called CD3ε
The experiment in a line: SPR. In general terms: SPR reads the build-up and loss of mass on a sensor chip optically.

“And” between values parts separate entries of the source, which are not always exact repeats. Equal values may be shown once.

T1 sequence (P07766 23-126 limits assumed): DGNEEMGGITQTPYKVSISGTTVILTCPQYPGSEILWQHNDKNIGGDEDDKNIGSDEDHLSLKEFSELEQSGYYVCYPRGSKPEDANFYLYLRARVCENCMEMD

B1: hCE115HAa-E22Hh/none-Hi-Kn010G3/L0000-k0 (antibody, V domains shown)
VH: QVQLVESGGGVVQPGGSLRLSCAASGFTFSNAWMHWVRQAPGKGLEWVAQIKAKSNNYATYYAESVKGRFTISRDDSKNSLYLQMNSLKTEDTAVYYCRYVHYGAYYGVDAWGQGTTVTVSS
VL: DIVMTQSPLSLPVTPGEPASISCRSSQSLVHSNRNTYLHWYQQKPGQAPRLLIYKVSNRFSGVPDRFSGSGSGTDFTLKISRVEAEDVGVYYCGQGTQVPYTFGQGTKLEIKR
notes: one-arm
For B1, the Kd was 108 nM.

B2: hCE115HA-E22Hh/none-Hi-Kn010G3/L0000-k0 (antibody, human IgG1, kappa, L234A L235A, N297A, V domains shown)
VH: QVQLVESGGGVVQPGRSLRLSCAASGFTFSNAWMHWVRQAPGKGLEWVAQIKAKSNNYATYYAESVKGRFTISRDDSKNSLYLQMNSLKTEDTAVYYCRYVHYGAYYGVDAWGQGTTVTVSS
VL: DIVMTQSPLSLPVTPGEPASISCRSSQSLVHSNRNTYLHWYQQKPGQAPRLLIYKVSNRFSGVPDRFSGSGSGTDFTLKISRVEAEDVGVYYCGQGTQVPYTFGQGTKLEIKR
notes: one-arm; also called hCE115HA-E22Hh//-Hi-Kn010G3/L0000-k0
Regarding B2, the Kd was 143 nM and 124 nM.

B3: TR01H040-E22Hh/none-Hi-Kn010G3/TR01L011-k0 (antibody, V domains shown)
VH: QVQLVESGGGLVQPGRSLRLSCAASGFTFSNAWMHWVRQAPGKGLEWVAQIKDKSQNYATYYAESVKGRFTISRADSKNSIYLQMNSLKTEDTAVYYCRYVHYSASYGVDAWGQGTTVTVSS
VL: DIVMTQSPLSLPVTPGEPASISCQASESLVHSNRNTYLHWYQQKPGQAPRLLIYKVSNRFRGVPDRFSGSGSGTDFTLKISRVEAEDVGVYYCGQGTQVPYTFGQGTKVEIE
notes: one-arm
Molecule B3 displayed a Kd of 35.7 nM.

B4: rCE115H-G1dh//-Hi-Kn010G3/L0000-k0 (antibody, V domains shown)
VH: EVQLVETGGSLVQPGKSLKLTCATSGFTFSNAWMHWVRQSPEKQLEWVAQIKAKSNNYATYYAESVKGRFTISRDDSKSNIYLQMNSLKEEDTAVYYCRYVHYGAYYGVDAWGQGTSVTVSS
VL: DIVMTQSPLSLPVTPGEPASISCRSSQSLVHSNRNTYLHWYQQKPGQAPRLLIYKVSNRFSGVPDRFSGSGSGTDFTLKISRVEAEDVGVYYCGQGTQVPYTFGQGTKLEIKR
notes: one-arm
With B4, the equilibrium dissociation constant (Kd) turned out to be 57.6 nM.

B5: TR01H015-E22Hh/none-Hi-Kn010G3/L0000-k0 (antibody, human IgG1, kappa, L234A L235A, N297A)
heavy: QVQLVESGGGLVQPGRSLRLSCAASGFTFSNAWMHWVRQAPGKGLEWVAQIKGKSNNYATYYAESVKGRFTISRADSKNSIYLQMNSLKTEDTAVYYCRYVHYSASYGVDIWGQGTTVTVSSASTKGPSVFPLAPSSKSTSGGTAALGCLVKDYFPEPVTVSWNSGALTSGVHTFPAVLQSSGLYSLSSVVTVPSSSLGTQTYICNVNHKPSNTKVDKKVEPKSCDKTHTCPPCPAPEAAGGPSVFLFPPKPKDTLMISRTPEVTCVVVDVSHEDPEVKFNWYVDGVEVHNAKTKPREEQYASTYRVVSVLTVLHQDWLNGKEYKCKVSNKALPAPIEKTISKAKGQPREPQVYTLPPSRCELTKNQVSLSCAVKGFYPSDIAVEWESNGQPENNYKTTPPVLDSDGSFFLVSKLTVDKSRWQQGNVFSCSVMHEALHNHYTQKSLSLSPDYKDDDDK
light: DIVMTQSPLSLPVTPGEPASISCRSSQSLVHSNRNTYLHWYQQKPGQAPRLLIYKVSNRFSGVPDRFSGSGSGTDFTLKISRVEAEDVGVYYCGQGTQVPYTFGQGTKLEIKRTVAAPSVFIFPPSDEQLKSGTASVVCLLNNFYPREAKVQWKVDNALQSGNSQESVTEQDSKDSTYSLSSTLTLSKADYEKHKVYACEVTHQGLSSPVTKSFNRGEC
notes: one-arm
Molecule B5 returned a Kd of 61.3 nM.

B6: CE115HA251-E22Hh//-Hi-Kn010G3/L0000-k0 (antibody, human IgG1, kappa, L234A L235A, N297A, V domains shown)
VH: QVQLVESGGGVVQPGRSLRLSCAASGFTFSNAWMHWVRQAPGKGLEWVAQIKAKSNNYATYYAESVKGRFTISRDDSKNSLYLQMNSLKTEDTAVYYCRYVHYYYYYGVDAWGQGTTVTVSS
VL: DIVMTQSPLSLPVTPGEPASISCRSSQSLVHSNRNTYLHWYQQKPGQAPRLLIYKVSNRFSGVPDRFSGSGSGTDFTLKISRVEAEDVGVYYCGQGTQVPYTFGQGTKLEIKR
notes: one-arm
Molecule B6 had a Kd of 22.3 nM.

B7: CE115HA251-E22Hh/L0000-k0/GL4-E22Hk/H0000-E22L (bispecific antibody, human IgG1, kappa, L234A L235A, N297A)
heavy: QVQLVESGGGVVQPGRSLRLSCAASGFTFSNAWMHWVRQAPGKGLEWVAQIKAKSNNYATYYAESVKGRFTISRDDSKNSLYLQMNSLKTEDTAVYYCRYVHYYYYYGVDAWGQGTTVTVSSASTKGPSVFPLAPSSKSTSGGTAALGCLVKDYFPEPVTVSWNSGALTSGVHTFPAVLQSSGLYSLSSVVTVPSSSLGTQTYICNVNHKPSNTKVDKKVEPKSCDKTHTCPPCPAPEAAGGPSVFLFPPKPKDTLMISRTPEVTCVVVDVSHEDPEVKFNWYVDGVEVHNAKTKPREEQYASTYRVVSVLTVLHQDWLNGKEYKCKVSNKALPAPIEKTISKAKGQPREPQVYTLPPSRCELTKNQVSLSCAVKGFYPSDIAVEWESNGQPENNYKTTPPVLDSDGSFFLVSKLTVDKSRWQQGNVFSCSVMHEALHNHYTQKSLSLSPDYKDDDDK
light: DIVMTQSPLSLPVTPGEPASISCRSSQSLVHSNRNTYLHWYQQKPGQAPRLLIYKVSNRFSGVPDRFSGSGSGTDFTLKISRVEAEDVGVYYCGQGTQVPYTFGQGTKLEIKRTVAAPSVFIFPPSDEQLKSGTASVVCLLNNFYPREAKVQWKVDNALQSGNSQESVTEQDSKDSTYSLSSTLTLSKADYEKHKVYACEVTHQGLSSPVTKSFNRGEC
chain 1: DIVMTQSPLSLPVTPGEPASISCRSSQSLVHSNRNTYLHWYQQKPGQAPRLLIYKVSNRFSGVPDRFSGSGSGTDFTLKISRVEAEDVGVYYCSQNTHVPPTFGQGTKLEIKSSASTKGPSVFPLAPSSKSTSGGTAALGCLVKDYFPEPVTVSWNSGALTSGVHTFPAVLQSSGLYSLSSVVTVPSSSLGTQTYICNVNHKPSNTKVDKKVEPKSCDKTHTCPPCPAPEAAGGPSVFLFPPKPKDTLMISRTPEVTCVVVDVSHEDPEVKFNWYVDGVEVHNAKTKPREEQYASTYRVVSVLTVLHQDWLNGKEYKCKVSNKALPAPIEKTISKAKGQPREPQVCTLPPSRDELTKNQVSLWCLVKGFYPSDIAVEWESNGQPENNYKTTPPVLDSDGSFFLYSKLTVDKSRWQQGNVFSCSVMHEALHNHYTQKSLSLSPHHHHHHHH
chain 2: QVQLVQSGAEVKKPGASVKVSCKASGYTFTDYEMHWIRQPPGQGLEWIGAIDPKTGDTAYSQKFKGRVTLTADKSTSTAYMELSSLTSEDTAVYYCTRFYSYTYWGQGTLVTVSSASVAAPSVFIFPPSDEQLKSGTASVVCLLNNFYPREAKVQWKVDNALQSGNSQESVTEQDSKDSTYSLSSTLTLSKADYEKHKVYACEVTHQGLSSPVTKSFNRGEC
notes: ERY22 format
In turn, B7 yielded a Kd of 14.8 nM.

B8: TR01H002-E22Hh/GLS3108-k0/GL4-E22Hk/H0000-E22L (bispecific antibody, human IgG1, kappa, L234A L235A, N297A)
heavy: QVQLVESGGGVVQPGRSLRLSCAASGFTFSNAWMHWVRQAPGKGLEWVAQIKAKSNNYKKYYAESVKGRFTISRDDSKNSLYLQMNSLKTEDTAVYYCRYVHYYYYYGVQAWGQGTTVTVSSASTKGPSVFPLAPSSKSTSGGTAALGCLVKDYFPEPVTVSWNSGALTSGVHTFPAVLQSSGLYSLSSVVTVPSSSLGTQTYICNVNHKPSNTKVDKKVEPKSCDKTHTCPPCPAPEAAGGPSVFLFPPKPKDTLMISRTPEVTCVVVDVSHEDPEVKFNWYVDGVEVHNAKTKPREEQYASTYRVVSVLTVLHQDWLNGKEYKCKVSNKALPAPIEKTISKAKGQPREPQVYTLPPSRCELTKNQVSLSCAVKGFYPSDIAVEWESNGQPENNYKTTPPVLDSDGSFFLVSKLTVDKSRWQQGNVFSCSVMHEALHNHYTQKSLSLSPDYKDDDDK
light: DIVMTQSPLSLPVTPGEPASISCRSSQSLVHSNRNTYLSWYQQKPGQAPRLLIYKVSNRFSGVPDRFSGSGSGTDFTLKISRVEAEDVGVYYCGQGTQVPYTFGQGTKLEIKRTVAAPSVFIFPPSDEQLKSGTASVVCLLNNFYPREAKVQWKVDNALQSGNSQESVTEQDSKDSTYSLSSTLTLSKADYEKHKVYACEVTHQGLSSPVTKSFNRGEC
chain 1: DIVMTQSPLSLPVTPGEPASISCRSSQSLVHSNRNTYLHWYQQKPGQAPRLLIYKVSNRFSGVPDRFSGSGSGTDFTLKISRVEAEDVGVYYCSQNTHVPPTFGQGTKLEIKSSASTKGPSVFPLAPSSKSTSGGTAALGCLVKDYFPEPVTVSWNSGALTSGVHTFPAVLQSSGLYSLSSVVTVPSSSLGTQTYICNVNHKPSNTKVDKKVEPKSCDKTHTCPPCPAPEAAGGPSVFLFPPKPKDTLMISRTPEVTCVVVDVSHEDPEVKFNWYVDGVEVHNAKTKPREEQYASTYRVVSVLTVLHQDWLNGKEYKCKVSNKALPAPIEKTISKAKGQPREPQVCTLPPSRDELTKNQVSLWCLVKGFYPSDIAVEWESNGQPENNYKTTPPVLDSDGSFFLYSKLTVDKSRWQQGNVFSCSVMHEALHNHYTQKSLSLSPHHHHHHHH
chain 2: QVQLVQSGAEVKKPGASVKVSCKASGYTFTDYEMHWIRQPPGQGLEWIGAIDPKTGDTAYSQKFKGRVTLTADKSTSTAYMELSSLTSEDTAVYYCTRFYSYTYWGQGTLVTVSSASVAAPSVFIFPPSDEQLKSGTASVVCLLNNFYPREAKVQWKVDNALQSGNSQESVTEQDSKDSTYSLSSTLTLSKADYEKHKVYACEVTHQGLSSPVTKSFNRGEC
notes: ERY22 format
As to B8, the Kd amounted to 4.78 nM.

B9: CE115HA236-E22Hh/GLS3108-k0/GL4-E22Hk/H0000-E22L (bispecific antibody, human IgG1, kappa, L234A L235A, N297A)
heavy: QVQLVESGGGVVQPGRSLRLSCAASGFTFSNAWMHWVRQAPGKGLEWVAQIKAKSNNYATYYAESVKGRFTISRDDSKNSLYLQMNSLKTEDTAVYYCRYVHYYAYYGVQAWGQGTTVTVSSASTKGPSVFPLAPSSKSTSGGTAALGCLVKDYFPEPVTVSWNSGALTSGVHTFPAVLQSSGLYSLSSVVTVPSSSLGTQTYICNVNHKPSNTKVDKKVEPKSCDKTHTCPPCPAPEAAGGPSVFLFPPKPKDTLMISRTPEVTCVVVDVSHEDPEVKFNWYVDGVEVHNAKTKPREEQYASTYRVVSVLTVLHQDWLNGKEYKCKVSNKALPAPIEKTISKAKGQPREPQVYTLPPSRCELTKNQVSLSCAVKGFYPSDIAVEWESNGQPENNYKTTPPVLDSDGSFFLVSKLTVDKSRWQQGNVFSCSVMHEALHNHYTQKSLSLSPDYKDDDDK
light: DIVMTQSPLSLPVTPGEPASISCRSSQSLVHSNRNTYLSWYQQKPGQAPRLLIYKVSNRFSGVPDRFSGSGSGTDFTLKISRVEAEDVGVYYCGQGTQVPYTFGQGTKLEIKRTVAAPSVFIFPPSDEQLKSGTASVVCLLNNFYPREAKVQWKVDNALQSGNSQESVTEQDSKDSTYSLSSTLTLSKADYEKHKVYACEVTHQGLSSPVTKSFNRGEC
chain 1: DIVMTQSPLSLPVTPGEPASISCRSSQSLVHSNRNTYLHWYQQKPGQAPRLLIYKVSNRFSGVPDRFSGSGSGTDFTLKISRVEAEDVGVYYCSQNTHVPPTFGQGTKLEIKSSASTKGPSVFPLAPSSKSTSGGTAALGCLVKDYFPEPVTVSWNSGALTSGVHTFPAVLQSSGLYSLSSVVTVPSSSLGTQTYICNVNHKPSNTKVDKKVEPKSCDKTHTCPPCPAPEAAGGPSVFLFPPKPKDTLMISRTPEVTCVVVDVSHEDPEVKFNWYVDGVEVHNAKTKPREEQYASTYRVVSVLTVLHQDWLNGKEYKCKVSNKALPAPIEKTISKAKGQPREPQVCTLPPSRDELTKNQVSLWCLVKGFYPSDIAVEWESNGQPENNYKTTPPVLDSDGSFFLYSKLTVDKSRWQQGNVFSCSVMHEALHNHYTQKSLSLSPHHHHHHHH
chain 2: QVQLVQSGAEVKKPGASVKVSCKASGYTFTDYEMHWIRQPPGQGLEWIGAIDPKTGDTAYSQKFKGRVTLTADKSTSTAYMELSSLTSEDTAVYYCTRFYSYTYWGQGTLVTVSSASVAAPSVFIFPPSDEQLKSGTASVVCLLNNFYPREAKVQWKVDNALQSGNSQESVTEQDSKDSTYSLSSTLTLSKADYEKHKVYACEVTHQGLSSPVTKSFNRGEC
notes: ERY22 format
Molecule B9 gave a Kd of 6.95 nM.

For orientation: Kd means the concentration at which binding is half-saturated. A higher Kd goes with a looser complex.
